Measurements reported in US20210403527A1 (published 2021).

T1: NY-ESO-1 peptide on HLA-A*02:01 (human)
T1 peptide: SLLMWITQC


Target: T1, NY-ESO-1 peptide on HLA-A*02:01
Experiment: multimer staining

binding result | Binder
recognises | TCR063 (TCR, V domains shown) Valpha: QKEVEQNSGPLSVPEGAIASLNCTYSDRGSQSFFWYRQYSGKSPELIMSIYSNGDKEDGRFTAQLNKASQYVSLLIRDSQPSDSATYLCAVNILASGGSYIPTFGRGTSLIVHP Vbeta: ETGVTQTPRHLVMGMTNKKSLKCEQHLGHNAMYWYKQSAKKPLELMFVYNFKEQTENNSVPSRFSPECPNSSHLFLHLHTLQPEDSALYLCASSHGTGYNYGYTFGSGTRLTVV
recognises | TCR184 (TCR, V domains shown) Valpha: DQQVKQNSPSLSVQEGRISILNCDYTNSMFDYFLWYKKYPAEGPTFLISISSIKDKNEDGRFTVFLNKSAKHLSLHIVPSQPGDSAVYFCAARKNYGGSQGNLIFGKGTKLSVKP Vbeta: DAGVTQSPTHLIKTRGQQVTLRCSPISGHKSVSWYQQVLGQGPQFIFQYYEKEERGRGNFPDRFSARQFPNYSSELNVNALLLGDSALYLCASSLGSYDYTFGSGTRLTVV
recognises | TCR001 (TCR, V domains shown) Valpha: DAKTTQPNSMESNEEEPVHLPCNHSTISGTDYIHWYRQLPSQGPEYVIHGLTSNVNNRMASLAIAEDRKSSTLILHRATLRDAAVYYCILRPDSWGKFQFGAGTQVVVTP Vbeta: NAGVTQTPKFRILKIGQSMTLQCAQDMNHNYMYWYRQDPGMGLKLIYYSVGAGITDKGEVPNGYNVSRSTTEYFPLRLELAAPSQTSVYFCASSYSGGSPLHFGNGTRLTVT
recognises | TCR050 (TCR, V domains shown) Valpha: DAKTTQPNSMESNEEEPVHLPCNHSTISGTDYIHWYRQLPSQGPEYVIHGLTSNVNNRMASLAIAEDRKSSTLILHRATLRDAAVYYCILREGNNDMRFGAGTRLTVKP Vbeta: NAGVTQTPKFRILKIGQSMTLQCAQDMNHNYMYWYRQDPGMGLKLIYYSVGAGITDKGEVPNGYNVSRSTTEYFPLRLELAAPSQTSVYFCASSWTDNQPQHFGDGTRLSIL
recognises | TCR167 (TCR, V domains shown) Valpha: DAKTTQPNSMESNEEEPVHLPCNHSTISGTDYIHWYRQLPSQGPEYVIHGLTSNVNNRMASLAIAEDRKSSTLILHRATLRDAAVYYCILRPDSWGKFQFGAGTQVVVTP Vbeta: GAVVSQHPSWVICKSGTCVKIECRSLDFQATTMFWYRQFPKQSLMLMATSNEGSKATYEQGVEKDKFLINHASLTLSTLTVAGAHPEDSSFYICSAMTVMNTEAFFGQGTRLTVV
recognises | TCR108 (TCR, V domains shown) Valpha: GENVEQHPSTLSVQEGDSAVIKCTYSDSASNYFPWYKQELGKRPQLIIDIRSNVGEKKDQRIAVTLNKTAKHFSLHITETQPEDSAVYFCAASMKDSSYKLIFGSGTRLLVRP Vbeta: ETGVTQTPRHLVMGMTNKKSLKCEQHLGHNAMYWYKQSAKKPLELMFVYNFKEQTENNSVPSRFSPECPNSSHLFLHLHTLQPEDSALYLCASSQGPGYTFGSGTRLTVV
recognises | TCR317 (TCR, V domains shown) Valpha: QKEVEQNSGPLSVPEGAIASLNCTYSDRGSQSFFWYRQYSGKSPELIMSIYSNGDKEDGRFTAQLNKASQYVSLLIRDSQPSDSATYLCAVNSSPYKLSFGAGTTVTVRA Vbeta: ETGVTQTPRHLVMGMTNKKSLKCEQHLGHNAMYWYKQSAKKPLELMFVYNFKEQTENNSVPSRFSPECPNSSHLFLHLHTLQPEDSALYLCASSQGPGYTFGSGTRLTVV
recognises | TCR188 (TCR, V domains shown) Valpha: DAKTTQPNSMESNEEEPVHLPCNHSTISGTDYIHWYRQLPSQGPEYVIHGLTSNVNNRMASLAIAEDRKSSTLILHRATLRDAAVYYCILNTGTASKLTFGTGTRLQVTL Vbeta: GAVVSQHPSWVICKSGTSVKIECRSLDFQATTMFWYRQFPKQSLMLMATSNEGSKATYEQGVEKDKFLINHASLTLSTLTVTSAHPEDSSFYICSAKEGTEAFFGQGTRLTVV
recognises | TCR018 (TCR, V domains shown) Valpha: AQTVTQSQPEMSVQEAETVTLSCTYDTSESDYYLFWYKQPPSRQMILVIRQEAYKQQNATENRFSVNFQKAAKSFSLKISDSQLGDAAMYFCAYRSANSGYALNFGKGTSLLVTP Vbeta: ETGVTQTPRHLVMGMTNKKSLKCEQHLGHNAMYWYKQSAKKPLELMFVYNFKEQTENNSVPSRFSPECPNSSHLFLHLHTLQPEDSALYLCASSQAHYTEAFFGQGTRLTVV
recognises | TCR090 (TCR, V domains shown) Valpha: GENVEQHPSTLSVQEGDSSVIKCTYSDSASNYFPWYKQELGKRPQLIIDIRSNVGEKKDQRIAVTLNKTAKHFSLHITETQPEDSAVYFCAATGYGQNFVFGPGTRLSVLP Vbeta: EAQVTQNPRYLITVTGKKLTVTCSQNMNHEYMSWYRQDPGLGLRQIYYSMNVEVTDKGDVPEGYKVSRKEKRNFPLILESPSPNQTSLYFCASSLRGPYGYTFGSGTRLTVV
